Experiments:
[1] = molecular target: HLA.A1 molecule on cells that do not express the antigen MAGE-1 (infected with control adenovirus Ad-βgal) (human); experiment: cell-based or functional assay
[2] = molecular target: Mage-1 antigenic nonapeptide presented by the HLA.A1 molecule on cells (human) (UniProt P43355); experiment: cell-based or functional assay

“T cell receptor of the anti-Mage-1 CTL clone 82:30 (TCR)” was tested, and the % lysis, 51Cr release 4 h, E/T 0.1, C1R infected Ad β gal (500 pfu/cell) [1] was 2%, the % lysis, 51Cr release 4 h, E/T 0.1, Gerlach E- infected Ad β gal (500 pfu/cell) [1] was 2% and the % lysis, 51Cr release 4 h, E/T 0.3, C1R infected Ad β gal (500 pfu/cell) [1] was 1%. The % lysis, 51Cr release 4 h, E/T 0.3, Gerlach E- infected Ad β gal (500 pfu/cell) [1] was 0%, the % lysis, 51Cr release 4 h, E/T 1, C1R infected Ad β gal (500 pfu/cell) [1] was 3% and the % lysis, 51Cr release 4 h, E/T 1, Gerlach E- infected Ad β gal (500 pfu/cell) [1] was 0%. The % lysis, 51Cr release 4 h, E/T 3, C1R infected Ad β gal (500 pfu/cell) [1] was 4%, the % lysis, 51Cr release 4 h, E/T 3, Gerlach E- infected Ad β gal (500 pfu/cell) [1] was 0% and the % lysis, 51Cr release 4 h, E/T 10, C1R infected Ad β gal (500 pfu/cell) [1] was 2%. It also gave a % lysis, 51Cr release 4 h, E/T 10, Gerlach E- infected Ad β gal (500 pfu/cell) [1] of 0%, a % lysis, 51Cr release 4 h, E/T 30, C1R infected Ad β gal (500 pfu/cell) [1] of 3% and a % lysis, 51Cr release 4 h, E/T 30, Gerlach E- infected Ad β gal (500 pfu/cell) [1] of 0%. It also gave a TNF produced by the CTL clone, +CTL, Gerlach E- infected with Ad. βgal, 50 pfu/cell [1] of 0 pg TNF, a TNF produced by the CTL clone, +CTL, Gerlach E- infected with Ad. βgal, 100 pfu/cell [1] of 0 pg TNF and a % lysis, 51Cr release 4 h, E/T 0.1, C1R infected Ad Mage-1 (500 pfu/cell) [2] of 28%. It also gave a % lysis, 51Cr release 4 h, E/T 0.1, C1R transfected with Mage-1 [2] of 19%, a % lysis, 51Cr release 4 h, E/T 0.1, Gerlach E- infected Ad Mage-1 (500 pfu/cell) [2] of 2% and a % lysis, 51Cr release 4 h, E/T 0.3, C1R infected Ad Mage-1 (500 pfu/cell) [2] of 44%. It also gave a % lysis, 51Cr release 4 h, E/T 0.3, C1R transfected with Mage-1 [2] of 25%, a % lysis, 51Cr release 4 h, E/T 0.3, Gerlach E- infected Ad Mage-1 (500 pfu/cell) [2] of 5% and a % lysis, 51Cr release 4 h, E/T 1, C1R infected Ad Mage-1 (500 pfu/cell) [2] of 44%. The % lysis, 51Cr release 4 h, E/T 1, C1R transfected with Mage-1 [2] was 30%, the % lysis, 51Cr release 4 h, E/T 1, Gerlach E- infected Ad Mage-1 (500 pfu/cell) [2] was 6% and the % lysis, 51Cr release 4 h, E/T 3, C1R infected Ad Mage-1 (500 pfu/cell) [2] was 61%. For the same sequence, the % lysis, 51Cr release 4 h, E/T 3, C1R transfected with Mage-1 [2] was 45%, the % lysis, 51Cr release 4 h, E/T 3, Gerlach E- infected Ad Mage-1 (500 pfu/cell) [2] was 13% and the % lysis, 51Cr release 4 h, E/T 10, C1R infected Ad Mage-1 (500 pfu/cell) [2] was 59%. For the same sequence, the % lysis, 51Cr release 4 h, E/T 10, C1R transfected with Mage-1 [2] was 40%, the % lysis, 51Cr release 4 h, E/T 10, Gerlach E- infected Ad Mage-1 (500 pfu/cell) [2] was 15% and the % lysis, 51Cr release 4 h, E/T 30, C1R infected Ad Mage-1 (500 pfu/cell) [2] was 62%. For the same sequence, the % lysis, 51Cr release 4 h, E/T 30, C1R transfected with Mage-1 [2] was 33%, the % lysis, 51Cr release 4 h, E/T 30, Gerlach E- infected Ad Mage-1 (500 pfu/cell) [2] was 15% and the TNF produced by the CTL clone, +CTL, Gerlach E+ (HLA A1+) (Mage 1+) [2] was 45 pg TNF. For the same sequence, the TNF produced by the CTL clone, +CTL, Gerlach E- infected with Ad. Mage 1, 50 pfu/cell [2] was 4 pg TNF, the TNF produced by the CTL clone, +CTL, Gerlach E- infected with Ad. Mage 1, 100 pfu/cell [2] was 12 pg TNF and the optical density (MTT, WEHI-164-13 viability) of 24 h supernatant, +CTL, Gerlach E+ (HLA A1+) (Mage 1+) (optical density) [2] was 0.17. For the same sequence, the optical density (MTT, WEHI-164-13 viability) of 24 h supernatant, +CTL, Gerlach E- infected with Ad. Mage 1, 50 pfu/cell (optical density) [2] was 0.58 and the optical density (MTT, WEHI-164-13 viability) of 24 h supernatant, +CTL, Gerlach E- infected with Ad. Mage 1, 100 pfu/cell (optical density) [2] was 0.355.

From patent US20030082150A1
